Patent US20030194391A1 (published 2003)

T1: mIL-13R1-Fc (catalogue number 491-IR-200, R+D Systems) (mouse, UniProt O09030 26-340)
T1 construct: Bought; also called mIL-13Rα1; mouse IL-13 receptor; not shown: Fc part; captured on plates with anti-human IgG
T1 sequence (looked up): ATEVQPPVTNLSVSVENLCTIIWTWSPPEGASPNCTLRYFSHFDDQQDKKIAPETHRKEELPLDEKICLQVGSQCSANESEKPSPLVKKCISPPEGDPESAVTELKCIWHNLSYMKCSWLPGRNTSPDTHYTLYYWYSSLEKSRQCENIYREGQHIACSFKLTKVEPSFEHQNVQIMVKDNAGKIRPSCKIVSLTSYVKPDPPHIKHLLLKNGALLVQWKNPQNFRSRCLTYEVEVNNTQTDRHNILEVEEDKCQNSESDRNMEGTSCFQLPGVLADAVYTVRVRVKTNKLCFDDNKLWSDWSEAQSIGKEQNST

T2: mIL-13R2-Fc (catalogue number 539-IR-100, R+D Systems) (mouse, UniProt O88786 22-334)
T2 construct: Bought; also called mIL-13Rα2; mouse IL-13 receptor; not shown: Fc part; captured on plates with anti-human IgG
T2 sequence (looked up): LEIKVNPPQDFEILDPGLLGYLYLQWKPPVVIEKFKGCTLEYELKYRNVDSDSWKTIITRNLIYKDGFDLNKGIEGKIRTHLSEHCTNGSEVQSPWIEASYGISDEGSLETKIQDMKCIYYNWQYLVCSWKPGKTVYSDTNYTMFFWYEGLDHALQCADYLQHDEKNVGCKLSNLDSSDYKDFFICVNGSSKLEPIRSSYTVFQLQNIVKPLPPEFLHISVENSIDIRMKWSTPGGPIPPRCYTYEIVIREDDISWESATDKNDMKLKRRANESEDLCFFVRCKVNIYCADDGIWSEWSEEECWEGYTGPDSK

T3: human type-2 IL-4 receptor expressed by the human lung fibroblast cell line A549 (human, UniProt P24394 26-825; P78552 22-427)
T3 sequence (looked up) 1: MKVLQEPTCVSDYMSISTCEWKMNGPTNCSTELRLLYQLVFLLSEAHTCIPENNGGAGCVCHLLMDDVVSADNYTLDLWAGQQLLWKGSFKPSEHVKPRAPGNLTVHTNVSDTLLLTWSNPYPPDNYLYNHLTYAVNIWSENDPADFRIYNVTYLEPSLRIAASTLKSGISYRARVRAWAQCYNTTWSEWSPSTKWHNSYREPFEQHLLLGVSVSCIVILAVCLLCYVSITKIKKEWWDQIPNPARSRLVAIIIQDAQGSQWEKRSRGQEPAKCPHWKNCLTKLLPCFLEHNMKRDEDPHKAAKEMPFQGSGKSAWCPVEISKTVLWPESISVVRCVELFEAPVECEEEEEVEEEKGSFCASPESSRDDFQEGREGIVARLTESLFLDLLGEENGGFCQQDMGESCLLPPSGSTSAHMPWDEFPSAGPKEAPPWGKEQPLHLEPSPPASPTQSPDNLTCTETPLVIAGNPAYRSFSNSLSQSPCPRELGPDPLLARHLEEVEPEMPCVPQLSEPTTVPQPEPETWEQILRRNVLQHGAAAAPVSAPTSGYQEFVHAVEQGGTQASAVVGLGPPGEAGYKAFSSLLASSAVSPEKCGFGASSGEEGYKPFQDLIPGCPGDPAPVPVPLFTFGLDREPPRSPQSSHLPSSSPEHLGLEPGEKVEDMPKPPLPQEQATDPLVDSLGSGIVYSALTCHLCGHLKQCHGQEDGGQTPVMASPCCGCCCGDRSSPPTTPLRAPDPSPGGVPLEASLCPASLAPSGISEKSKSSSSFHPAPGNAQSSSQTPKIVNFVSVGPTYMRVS
T3 sequence (looked up) 2: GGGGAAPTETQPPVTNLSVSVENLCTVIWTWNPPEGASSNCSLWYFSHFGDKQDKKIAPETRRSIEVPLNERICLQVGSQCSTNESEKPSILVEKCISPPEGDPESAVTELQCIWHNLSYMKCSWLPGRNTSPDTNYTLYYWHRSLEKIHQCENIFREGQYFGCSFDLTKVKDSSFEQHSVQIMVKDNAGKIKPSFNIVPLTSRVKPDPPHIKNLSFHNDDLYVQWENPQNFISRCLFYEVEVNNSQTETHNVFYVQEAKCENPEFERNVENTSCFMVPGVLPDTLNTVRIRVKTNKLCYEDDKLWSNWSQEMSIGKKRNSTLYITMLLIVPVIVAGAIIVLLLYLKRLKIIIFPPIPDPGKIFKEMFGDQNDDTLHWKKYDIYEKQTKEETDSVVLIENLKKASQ

B1: chimaeric IL-13 (free cIL-13 generated from GST-cIL-13 by thrombin cleavage) (ligand)
chain: GPVPRSVSLPLTLRELIEELVNITQDQTPLCNGSMVWSVDLAAGGYCAALESLTNISNCNAIEKTQRMLGGLCNRKAPTTVSSLPDTKIEVAQFVKDLLSYTKQLFRHGPF
notes: also called mouse chimaeric IL-13 vaccine construct
B2: GST-cIL-13 (genetic fusion protein of glutathione-S-transferase and chimaeric IL-13) (other)
chain: B1 chain
notes: Expressed in E. coli BLR from pGEX4T3-cIL-13; also called GST-cIL-3; not shown: glutathione-S-transferase as encoded by vector pGEX4T3 (Amersham Pharmacia); short spacer which contains the recognition site for thrombin

Tests used:
[1] = biological target: T1, mIL-13R1-Fc (catalogue number …); assay: ELISA, receptor-Fc captured on anti-human IgG, detection with biotinylated anti-mIL-13
Procedure: (§1) ELISAs were set up to determine whether cIL-13 could bind to either of the known mouse IL-13 receptors (mIL-13R1 or mIL-13R2). 96-well Maxisorp plates were coated with anti-human IgG (catalogue number I-3382, Sigma Aldrich) in carbonate-bicarbonate buffer overnight at 4° C. Plates were then blocked with 3% BSA/TBST for 1 hour at RT, washed 3 times in TBST, and incubated with mIL-13R1-Fc or mIL-13R2-Fc (catalogue numbers 491-IR-200 and 539-IR-100 respectively, R+D Systems) for 1 hour at RT. After washing, plates were incubated with dilutions of mIL-13 or cIL-13 or GST-cIL-13 for 1 hour at RT, washed again and incubated with biotinylated anti-mIL-13 (catalogue number BAF413, R+D Systems). Following further washing and incubation with streptavidin conjugated horse-radish peroxidase, the plates were developed with 0-phenylenediamine dihydrochloride peroxidase substrate for 30 minutes.

[2] = biological target: T2, mIL-13R2-Fc (catalogue number …); assay: as above
Procedure: as §1

[3] = biological target: T3, human type-2 IL-4 receptor expressed by …; assay: cell-based or functional assay

Binder | binding result [1] | binding result [2] | fold decrease in bioactivity against mIL-13 (STAT6 phosphorylation in A549 cells) [3]
B1 | binds | binds | ~5 fold
B2 | binds | binds | 
